According to patent US20220220215A1 (CRESCENDO BIOLOGICS, published 2022):
Each block holds one binder with its values, some of them ahead of it.

Assays:
[1] = biological target: T1, human PD-1 expressed on CHO cells (human, UniProt Q15116 21-288); test: flow cytometry on CHO huPD1 cells
T1 construct: also called CHO huPD1; CHO human PD1 cells

[2] = biological target: T2, human CD137 expressed on CHO cells (human, UniProt Q07011 18-255); test: flow cytometry on CHO huCD137 cells
T2 construct: also called CHO huCD137; CHO human CD137 cells

[3] = biological target: T2, human CD137 expressed on CHO cells; test: FMAT/Mirrorball on CHO huCD137 cells
Method in brief: (§1)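 His-tagged VH molecules bound to CHO cells expressing human PD-1 or human CD137, with CHO parent cells as control, in PBS pH 7.4, 0.1% BSA, 0.05% sodium azide. Read by FMAT on Mirrorball (ex 488/640 nm); binding taken as FL2 median fluorescence intensity of FL5-gated events.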

[4] = biological target: T1, human PD-1 expressed on CHO cells; test: FMAT/Mirrorball on CHO huPD1 cells
Method in brief: as §1

B3: TPP-969: PDA-6GS-HSA2-6GS-172E1-13-His (bispecific antibody)
chain: EVQLVESGGGLVQPGRSLRLSCAASGFTFDDYALHWVRQAPGKDLEWVSGISWNGGSYGYADSVKGRFTISRDNAKNSLYLQMNSLRAEDTALYYCVREKGPGLTGSTADYYGLDAWGQGTMVTVSSGGGGSGGGGSGGGGSGGGGSGGGGSGGGGSEVQLVESGGGLVKPGGSLRLSCAASGFTFSNYNMNWVRQAPGKGLEWVSSISSAGTHIYYADSVKGRFTISRDNAKNSLYLQMNSLRAEDTAVYYCARDPHSTGWYKDFDYWGQGTLVTVSSGGGGSGGGGSGGGGSGGGGSGGGGSGGGGSEVQLVESGGGVVQPGGSLRLSCAASGFTFSNYGMHWVRQAPGKGLEWVAVISNDGNTKTYADSVKGRFTISRDNSKNTLYLQMNSLRAEDTAVYYCAQDETTTVTASYYFDYWGQGTLVTVSSAAAHHHHHH
notes: Single-chain VH fusion (PD-1 VH, HSA VH, CD137 VH), His tag
EC50 [3]: 0.171 nM
EC50 [2]: 11.6 nM
EC50 [4]: 0.142 nM

B4: TPP-973: CD137A -6GS-PDA2-6GS-HSA2-His (bispecific antibody)
chain: EVQLVESGGGLVQPGGSLRLSCAASGFTLSNYWMNWVRQAPGKGLEWVANINQDGSERYYVDSVKGRFTISRDNAKNSLYLQMNSLRAEDTAVYYCARGGEGYGVDHYGLDVSGQGTTVTVSSGGGGSGGGGSGGGGSGGGGSGGGGSGGGGSEVQLVESGGGVVRPGGSLRLSCAASGFTFDDYAMSWVRQAPGKGLEWVSGITWNAGSTGYADSVKGRFTISRDNAKNSLYLQMNSLRAEDTALYYCVRDKYSYAWSYDDFDIWGQGTMVTVSSGGGGSGGGGSGGGGSGGGGSGGGGSGGGGSEVQLVESGGGLVKPGGSLRLSCAASGFTFSNYNMNWVRQAPGKGLEWVSSISSAGTHIYYADSVKGRFTISRDNAKNSLYLQMNSLRAEDTAVYYCARDPHSTGWYKDFDYWGQGTLVTVSSAAAHHHHHH
notes: Single-chain VH fusion (CD137 VH, PD-1 VH, HSA VH), His tag
EC50 [3]: 0.0781 nM
EC50 [1]: 108 nM
EC50 [2]: 0.595 nM
EC50 [4]: 0.481 nM

B5: TPP-1010: PD138G7(G109D)-6GS-HSA2-6GS- CD137D -His (bispecific antibody)
chain: EVQLVESGGGVVRPGGSLRLSCAASGFTFDDYAMSWVRQAPGKGLEWVSGITWNGGSTGYADSVKDRFTISRDNAKNSLYLQMNSLRAEDTALYYCVRDKYSYAWSYDDFDIWGQGTMVTVSSGGGGSGGGGSGGGGSGGGGSGGGGSGGGGSEVQLVESGGGLVKPGGSLRLSCAASGFTFSNYNMNWVRQAPGKGLEWVSSISSAGTHIYYADSVKGRFTISRDNAKNSLYLQMNSLRAEDTAVYYCARDPHSTGWYKDFDYWGQGTLVTVSSGGGGSGGGGSGGGGSGGGGSGGGGSGGGGSEVQLVESGGGVVQPGGSLRLSCAASGFTFSNYGMHWVRQAPGKGLEWVAVISNDGNTKTYADSVKGRFTISRDNSKNTLYLQMNSLRAEDTAVYYCAQDETTTVTASYYFDYWGQGTLVTVSSAAAHHHHHH
notes: as for B3
EC50 [3]: 0.101 nM
EC50 [1]: 0.531 nM
EC50 [2]: 9.39 nM
EC50 [4]: 0.162 nM

B6: TPP-1290 PD138G7(G109D)-6GS-CD137A-6GS-HSA2 (bispecific antibody)
chain: EVQLVESGGGVVRPGGSLRLSCAASGFTFDDYAMSWVRQAPGKGLEWVSGITWNGGSTGYADSVKDRFTISRDNAKNSLYLQMNSLRAEDTALYYCVRDKYSYAWSYDDFDIWGQGTMVTVSSGGGGSGGGGSGGGGSGGGGSGGGGSGGGGSEVQLVESGGGLVQPGGSLRLSCAASGFTLSNYWMNWVRQAPGKGLEWVANINQDGSERYYVDSVKGRFTISRDNAKNSLYLQMNSLRAEDTAVYYCARGGEGYGVDHYGLDVSGQGTTVTVSSGGGGSGGGGSGGGGSGGGGSGGGGSGGGGSEVQLVESGGGLVKPGGSLRLSCAASGFTFSNYNMNWVRQAPGKGLEWVSSISSAGTHIYYADSVKGRFTISRDNAKNSLYLQMNSLRAEDTAVYYCARDPHSTGWYKDFDYWGQGTLVTVSS
EC50 [1]: 22.7 nM
EC50 [2]: 4.45 nM

B9: TPP-1246 CD137A-6GS-HSA2-6GS-PD138G7(G109D) (bispecific antibody)
chain: EVQLVESGGGLVQPGGSLRLSCAASGFTLSNYWMNWVRQAPGKGLEWVANINQDGSERYYVDSVKGRFTISRDNAKNSLYLQMNSLRAEDTAVYYCARGGEGYGVDHYGLDVSGQGTTVTVSSGGGGSGGGGSGGGGSGGGGSGGGGSGGGGSEVQLVESGGGLVKPGGSLRLSCAASGFTFSNYNMNWVRQAPGKGLEWVSSISSAGTHIYYADSVKGRFTISRDNAKNSLYLQMNSLRAEDTAVYYCARDPHSTGWYKDFDYWGQGTLVTVSSGGGGSGGGGSGGGGSGGGGSGGGGSGGGGSEVQLVESGGGVVRPGGSLRLSCAASGFTFDDYAMSWVRQAPGKGLEWVSGITWNGGSTGYADSVKDRFTISRDNAKNSLYLQMNSLRAEDTALYYCVRDKYSYAWSYDDFDIWGQGTMVTVSS
EC50 [1]: 20.5 nM
EC50 [2]: 2.48 nM

Other lines, results leading:

EC50 [1]: 44.8 nM
B1: TPP-1293 (PDBlocker1.92-6GS- CD137A -6GS-HSA2) (bispecific antibody)
chain: EVQLVESGGGLVKPGGSLRLSCAASGFTFSDESMTWMRQAPGKGLEWVSYISSGGGVKFYADSVKGRFTISRDNAKNSLYLQMNSLRAEDTAVYYCAREAPLRLGESPHDAFDISGQGTMVTVSSGGGGSGGGGSGGGGSGGGGSGGGGSGGGGSEVQLVESGGGLVQPGGSLRLSCAASGFTLSNYWMNWVRQAPGKGLEWVANINQDGSERYYVDSVKGRFTISRDNAKNSLYLQMNSLRAEDTAVYYCARGGEGYGVDHYGLDVSGQGTTVTVSSGGGGSGGGGSGGGGSGGGGSGGGGSGGGGSEVQLVESGGGLVKPGGSLRLSCAASGFTFSNYNMNWVRQAPGKGLEWVSSISSAGTHIYYADSVKGRFTISRDNAKNSLYLQMNSLRAEDTAVYYCARDPHSTGWYKDFDYWGQGTLVTVSS

EC50 [1]: 183 nM
EC50 [2]: 4.4 nM
B2: TPP-1245 CD137A-6GS-PDA2-6GS-HSA2 (bispecific antibody)
chain: EVQLVESGGGLVQPGGSLRLSCAASGFTLSNYWMNWVRQAPGKGLEWVANINQDGSERYYVDSVKGRFTISRDNAKNSLYLQMNSLRAEDTAVYYCARGGEGYGVDHYGLDVSGQGTTVTVSSGGGGSGGGGSGGGGSGGGGSGGGGSGGGGSEVQLVESGGGVVRPGGSLRLSCAASGFTFDDYAMSWVRQAPGKGLEWVSGITWNAGSTGYADSVKGRFTISRDNAKNSLYLQMNSLRAEDTALYYCVRDKYSYAWSYDDFDIWGQGTMVTVSSGGGGSGGGGSGGGGSGGGGSGGGGSGGGGSEVQLVESGGGLVKPGGSLRLSCAASGFTFSNYNMNWVRQAPGKGLEWVSSISSAGTHIYYADSVKGRFTISRDNAKNSLYLQMNSLRAEDTAVYYCARDPHSTGWYKDFDYWGQGTLVTVSS

EC50 [1]: 25.4 nM
EC50 [2]: 3.39 nM
B7: TPP-1247 CD137A-6GS-HSA3-6GS-PD138G7(G109D) (bispecific antibody)
chain: EVQLVESGGGLVQPGGSLRLSCAASGFTLSNYWMNWVRQAPGKGLEWVANINQDGSERYYVDSVKGRFTISRDNAKNSLYLQMNSLRAEDTAVYYCARGGEGYGVDHYGLDVSGQGTTVTVSSGGGGSGGGGSGGGGSGGGGSGGGGSGGGGSEVQLLESGGGLVKPGGSLRLSCAASGFTVSSYTMNWVRQAPGKGLEWVSSISSSGRYIYYADSVKGRFTISRDNAKNSLYLQMNSLRAEDTAVYYCARDPRMVGNPHEFDIWGQGTMVTVSSGGGGSGGGGSGGGGSGGGGSGGGGSGGGGSEVQLVESGGGVVRPGGSLRLSCAASGFTFDDYAMSWVRQAPGKGLEWVSGITWNGGSTGYADSVKDRFTISRDNAKNSLYLQMNSLRAEDTALYYCVRDKYSYAWSYDDFDIWGQGTMVTVSS

EC50 [3]: 0.0533 nM
EC50 [1]: 33 nM
EC50 [4]: 0.15 nM
B8: TPP-972: CD137A-6GS-PDA-6GS-HSA2-His (bispecific antibody)
chain: EVQLVESGGGLVQPGGSLRLSCAASGFTLSNYWMNWVRQAPGKGLEWVANINQDGSERYYVDSVKGRFTISRDNAKNSLYLQMNSLRAEDTAVYYCARGGEGYGVDHYGLDVSGQGTTVTVSSGGGGSGGGGSGGGGSGGGGSGGGGSGGGGSEVQLVESGGGLVQPGRSLRLSCAASGFTFDDYALHWVRQAPGKDLEWVSGISWNGGSYGYADSVKGRFTISRDNAKNSLYLQMNSLRAEDTALYYCVREKGPGLTGSTADYYGLDAWGQGTMVTVSSGGGGSGGGGSGGGGSGGGGSGGGGSGGGGSEVQLVESGGGLVKPGGSLRLSCAASGFTFSNYNMNWVRQAPGKGLEWVSSISSAGTHIYYADSVKGRFTISRDNAKNSLYLQMNSLRAEDTAVYYCARDPHSTGWYKDFDYWGQGTLVTVSSAAAHHHHHH
notes: as for B4
